The record followed here is PMC7484405.

Data set [1] has as its target T1, M2-1 WT (Human respiratory syncytial virus …, UniProt P04545 1-194).
T1 sequence: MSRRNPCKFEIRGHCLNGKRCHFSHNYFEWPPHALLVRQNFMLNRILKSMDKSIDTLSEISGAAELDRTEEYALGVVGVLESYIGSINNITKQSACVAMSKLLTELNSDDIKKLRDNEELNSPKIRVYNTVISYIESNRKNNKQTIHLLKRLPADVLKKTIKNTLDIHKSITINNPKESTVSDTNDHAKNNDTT
As to the kind of experiment: X-ray crystallography.

Data set [2] deals with T1, M2-1 WT. Nature of the data set: MST.

Usually Kd stands for the equilibrium constant for the complex coming apart. Higher therefore signals weaker binding.

B1: SH7 (ssRNA)
RNA: AGUUAAU
Regarding B1, the binding result in data set [1] is reported as “binds”.

B2: SH 13-nt positive-sense gene-end RNA (ssRNA)
RNA: AGUUAAUUAAAAA
Consider B2, for which the affinity in data set [2], expressed as Kd, was 870 nM.
